Experimental data reported in patent US20250367292A1, “HLA SUPERAGONISTS AND USES THEREOF” (UNIVERSITY HEALTH NETWORK, priority 2021, published 2025).

Target: T1, HLA-A*24:02-restricted peptides (Homo sapiens, UniProt P04439, D101N/D140Y/D185E/E176V/E190D/F33S/G103R/G107R/I119L/I121M/I306V/K335N/L105A/L180Q/L300P/N151K/N90K/Q86E/Q94H/R106L/R138H/R89G/T104I/T345S/V100E/W191G/Y123F)
T1 construct: T2 cells transduced with the full-length HLA-A*24:02 genes tagged with ΔNGFR; Furin-SGSG-F2A-linked truncated NGFR (ΔNGFR) co-expression marker (C); expressed in transfected cells; host or cells: T2 cells, retrovirally transduced (pMX)
Test: Peptide-HLA binding assay (biotinylated peptide, SA-PE, flow cytometry)
Format: cell-based
Conditions: irrelevant control peptides
Description: T2-A24 (Wild-type) cells, or T2-A24 cells with a single amino acid substitution at position 81, 82, or 83 were pulsed with 50 μg/ml of biotinylated peptide overnight at 37° C. After intensive washing, the cells were stained by PE-conjugated streptavidin (SA-PE), washed and fluorescence intensity was measured by flow cytometry analysis.

## HLA-A*24:02 (A81L): HLA-A*24:02 with an Ala to Leu substitution at position 81 (A81L), corresponding to SEQ ID NO: 1
  peptide presentation by T2 cells towards non-HLA-A*24:02 restricted peptides: no increase
